# Measurements reported in the Immune Epitope Database (IEDB).
# Target: HLA-A*02:01
# Assay: IEDB peptide-MHC binding, purified MHC/competitive/radioactivity; filed as Kd, often an IC50 or EC50 that approximates it; ≥ and ≤ were set here for values at or beyond the usual limits of such assays
# Details: source organism: Homo sapiens
row,Sequence,Kd
1,FACSAVPVYI,0.781 µM
2,SLLTFMIAA,0.0094 µM
3,TLVSLLTFMI,2.63 µM
4,KVCGSNLLSI,4.54 µM
5,GLLECCARCLV,0.096 µM
6,LVLFACSAV,0.455 µM
7,FMIAATYNFAV,0.01 µM
8,ALTGTEKL,≥ 50 µM
9,HLFIAAFV,1.09 µM
10,VLPWIAFPGKV,1.28 µM
11,WLLVFACSA,≥ 50 µM
12,VIHAFQYVI,1.22 µM
13,FLYGALLLA,0.0026 µM
14,YALTVVWLL,0.119 µM
15,SLSRFSWGA,0.909 µM
16,LVSLLTFMI,1.92 µM
17,LVFACSAVPV,1.61 µM
18,LLVFACSAVPV,1 µM

row,Sequence,Kd
1,IAATYNFAV,0.093 µM
2,FLPRHRDTGIL,≥ 50 µM
3,GLCFFGVAL,4.17 µM
4,TLSKIFKL,2.38 µM
5,QMTFHLFI,1.85 µM
6,WLLVFACSAV,1.35 µM
7,RMYGVLPWI,0.029 µM
8,FLPRHRDTGI,≥ 5 µM
9,WLGHPDKFVGI,≥ 25 µM
10,QMTFHLFIA,1.67 µM
11,FLYGALLL,0.143 µM
12,VVHFFKNIV,≥ 50 µM
13,ALTGTEKLI,≥ 50 µM
14,CLVGAPFASLC,6.25 µM
15,SLCADARMYGV,0.357 µM
16,ALTVVWLL,7.14 µM
17,YALTVVWLLV,0.658 µM
18,WLGHPDKFV,≥ 50 µM
